Assay results as given in patent US20220143148A1, “COMPOSITIONS AND METHODS FOR MODULATING CGRP SIGNALING TO REGULATE INTESTINAL INNATE LYMPHOID CELLS” (The Broad Institute, Inc., priority 2019, published 2022).

System: small intestinal immune cells
Assay: Droplet-based scRNA-seq of small intestinal immune cells (LP and PP), OVA vs PBS, clustering and differential expression
Assay type: in vivo, mouse
Conditions: cluster ID 12, LP; for LN (average fold change): OVA vs PBS
Description: To comprehensively characterize small intestinal immune cells, Applicants generated scRNA-Seq profiles for 58,067 immune cells collected from lamina propria (LP) and Peyer's patch (PP) regions at steady state and after induction of a type 2 inflammatory reaction to ovalbumin (OVA) (Brandt et al., 2003) (FIGS. 1A and 8A). To ensure sufficient representation of rare cells, Applicants combined a normalization strategy—removing by flow sorting either a portion of IgD+ naïve B cells, which are the most abundant cell type in PPs, or all CD19+ and CD3+ T cells (FIG. 8B, Methods)—with profiling of a sufficiently large number of cells number (P>0.99 to recover at least 15 cells from each cluster, Methods) by massively parallel scRNA-seq (Haber et al., 2017) (Methods). Applicants obtained 36,797 and 21,270 high quality cells passing initial filtering (Methods) from PP and LP regions, respectively.
Overall, Applicants annotated 27 cell subsets across the two compartments, spanning T cells, B cells, ILCs, dendritic cells (DCs), myeloid cells and stromal cells, in frequencies ranging from 0.07% to 14%. Briefly, Applicants first partitioned the cells from the PP regions by unsupervised clustering (Methods) into 46 clusters, retained the 97% of cells that were robustly assigned cell identities in each cluster (Methods), assigned the cells from the LP regions to the 46 clusters using a classifier (Methods), and visualized the data with scvis (Ding et al., 2018), a deep generative model-based method (FIGS. 1B and 8C, Methods). Next, Applicants identified genes that were differentially expressed between the cells in each cluster and the remaining cells (Table 1, Methods), as well as between pairs of clusters (Table 2), to elucidate identities of similar cell types/states. Applicants excluded from downstream analysis clusters mostly consisting of contaminants from epithelium, likely doublets, or cells with a small number of Unique Molecular Identifiers (UMIs) (FIGS. 1C and 8D), or lacking distinct markers (Methods). Altogether, Applicants retained 27 clusters spanning 85% of the cells and each associated with distinct marker genes (FIG. 8E, Methods).
To induce allergic reaction to OVA, 6 to 7 weeks old mice were sensitized twice, two weeks apart, with 50 μg of OVA plus 1 mg of aluminum potassium sulfate adjuvant via intraperitoneal injection. Two weeks later, mice were orally administered with 50 mg of OVA on every other day for a total of five times. 1 μg of α-CGRP peptide was administered simultaneously when indicated. Mice were deprived of food for 3-4 hours in cages with wood chip bedding for limiting antigen degradation in the stomach before each intragastric challenge.
Isolation of cells from Peyer's patches (PPs). Peyer's patches (PPs) were carefully dissected from the small intestine under a stereo microscope using a fine scissor, pierced once with a fine forcep. Tissues were digested in freshly made digestion buffer (RPMI-1640 containing 100 μg/ml Liberase™ and 50 μg/ml DNase I at 37° C. on a roto-mixer. After 15 min, tissues were very gently mixed using a 1 ml pipette. The supernatant was collected and added to ice-cold MACS buffer (pH 7.4; PBS plus 2% FCS and 2 mM EDTA). Pre-warmed (37° C.) fresh digestion buffer was added to the remaining tissues. After rotation at 37° C. for 15 min, the mixture was vigorously mixed using a 1 ml pipette for 1 min. Supernatants from the two steps were combined and passed through 70 μm filters and stained for FACS (below).
Isolation of cells from the lamina propria (LP). The small intestines were opened longitudinally and washed in ice-cold PBS. For scRNA-seq, roughly 0.5 cm of fragments from each of the distal, middle and proximal regions without visible PPs were collected. Epithelial cells were dissociated by tissue rotation in pre-warmed (37° C.) PBS containing 10 mM EDTA at 37° C. for 15 min, followed by additional incubation on ice for 15 min. Tissues were then shaken vigorously. […]

B1: OVA (protein, UniProt P01012 2-386, looked up)
Ovalbumin: GSIGAASMEFCFDVFKELKVHHANENIFYCPIAIMSALAMVYLGAKDSTRTQINKVVRFDKLPGFGDSIEAQCGTSVNVHSSLRDILNQITKPNDVYSFSLASRLYAEERYPILPEYLQCVKELYRGGLEPINFQTAADQARELINSWVESQTNGIIRNVLQPSSVDSQTAMVLVNAIVFKGLWEKAFKDEDTQAMPFRVTEQESKPVQMMYQIGLFRVASMASEKMKILELPFASGTMSMLVLLPDEVSGLEQLESIINFEKLTEWTSSNVMEERKIKVYLPRMKMEEKYNLTSVLMAMGITDVFSSSANLSGISSAESLKISQAVHAAHAEINEAGREVVGSAEAGVDAASVSEEFRADHPFLFCIKHIATNAVLFFGRCVSP
B1 was tested, and the “percentage of expressing cells in OVA-treated group” value (“percentage of expressing cells” below) (gene Ero1l) was 0.399, the “LN (average fold change)” value (gene Ero1l) was 0.949 and the “percentage of expressing cells” value (gene Fgl2) was 0.61. For the same molecule, the “LN (average fold change)” value (gene Fgl2) was 0.609, the “percentage of expressing cells” value (gene Fth1) was 0.963 and the “LN (average fold change)” value (gene Fth1) was −0.236. The “percentage of expressing cells” value (gene Fxyd5) was 0.564, the “LN (average fold change)” value (gene Fxyd5) was 0.407 and the “percentage of expressing cells” value (gene Galnt12) was 0.086. For the same molecule, the “LN (average fold change)” value (gene Galnt12) was −0.960, the “percentage of expressing cells” value (gene Gapdh) was 0.561 and the “LN (average fold change)” value (gene Gapdh) was 0.420. For the same molecule, the “percentage of expressing cells” value (gene Gimap5) was 0.338, the “LN (average fold change)” value (gene Gimap5) was 0.779 and the “percentage of expressing cells” value (gene Glul) was 0.184. The “LN (average fold change)” value (gene Glul) was −1.009, the “percentage of expressing cells” value (gene Gmfg) was 0.31 and the “LN (average fold change)” value (gene Gmfg) was 0.821. For the same molecule, the “percentage of expressing cells” value (gene Gpr132) was 0.399, the “LN (average fold change)” value (gene Gpr132) was −0.573 and the “percentage of expressing cells” value (gene Gpx4) was 0.818. For the same molecule, the “LN (average fold change)” value (gene Gpx4) was −0.345, the “percentage of expressing cells” value (gene H2-Q4) was 0.246 and the “LN (average fold change)” value (gene H2-Q4) was −0.675. The “percentage of expressing cells” value (gene H2afj) was 0.433, the “LN (average fold change)” value (gene H2afj) was 0.452 and the “percentage of expressing cells” value (gene H3f3b) was 0.982. For the same molecule, the “LN (average fold change)” value (gene H3f3b) was 0.286, the “percentage of expressing cells” value (gene Hccs) was 0.243 and the “LN (average fold change)” value (gene Hccs) was 1.079. For the same molecule, the “percentage of expressing cells” value (gene Hmgb1) was 0.552, the “LN (average fold change)” value (gene Hmgb1) was −0.400 and the “percentage of expressing cells” value (gene Igha) was 0.951. For the same molecule, the “LN (average fold change)” value (gene Igha) was 0.407, the “percentage of expressing cells” value (gene Igkc) was 0.985 and the “LN (average fold change)” value (gene Igkc) was 0.474. For the same molecule, the “percentage of expressing cells” value (gene Iglc1) was 0.184, the “LN (average fold change)” value (gene Iglc1) was −0.692 and the “percentage of expressing cells” value (gene Irf1) was 0.069. The “LN (average fold change)” value (gene Irf1) was −1.336, the “percentage of expressing cells” value (gene Itk) was 0.515 and the “LN (average fold change)” value (gene Itk) was 0.495. For the same molecule, the “percentage of expressing cells” value (gene Jarid2) was 0.156, the “LN (average fold change)” value (gene Jarid2) was 1.269 and the “percentage of expressing cells” value (gene Kdm6b) was 0.65. The “LN (average fold change)” value (gene Kdm6b) was 0.555, the “percentage of expressing cells” value (gene Kif23) was 0.102 and the “LN (average fold change)” value (gene Kif23) was −1.129. For the same molecule, the “percentage of expressing cells” value (gene Klf4) was 0.336, the “LN (average fold change)” value (gene Klf4) was −0.566 and the “percentage of expressing cells” value (gene Lmna) was 0.045. For the same molecule, the “LN (average fold change)” value (gene Lmna) was −1.627, the “percentage of expressing cells” value (gene Ly6a) was 0.055 and the “LN (average fold change)” value (gene Ly6a) was −1.208. The “percentage of expressing cells” value (gene Maff) was 0.399, the “LN (average fold change)” value (gene Maff) was −0.518 and the “percentage of expressing cells” value (gene Mat2a) was 0.288. The “LN (average fold change)” value (gene Mat2a) was −0.572, the “percentage of expressing cells” value (gene Naca) was 0.839 and the “LN (average fold change)” value (gene Naca) was 0.299. For the same molecule, the “percentage of expressing cells” value (gene Ndfip1) was 0.247, the “LN (average fold change)” value (gene Ndfip1) was 0.765 and the “percentage of expressing cells” value (gene Neurl3) was 0.328. The “LN (average fold change)” value (gene Neurl3) was −0.470, the “percentage of expressing cells” value (gene Nfkb1) was 0.81 and the “LN (average fold change)” value (gene Nfkb1) was 0.501. The “percentage of expressing cells” value (gene Nr4a2) was 0.383, the “LN (average fold change)” value (gene Nr4a2) was 0.702 and the “percentage of expressing cells” value (gene Nrgn) was 0.284. The “LN (average fold change)” value (gene Nrgn) was 1.042, the “percentage of expressing cells” value (gene Nxpe3) was 0.202 and the “LN (average fold change)” value (gene Nxpe3) was 0.974. The “percentage of expressing cells” value (gene Pfn1) was 0.974, the “LN (average fold change)” value (gene Pfn1) was 0.233 and the “percentage of expressing cells” value (gene Pgm2l1) was 0.065. The “LN (average fold change)” value (gene Pgm2l1) was −0.966, the “percentage of expressing cells” value (gene Pnrc1) was 0.583 and the “LN (average fold change)” value (gene Pnrc1) was −0.457. The “percentage of expressing cells” value (gene Pole4) was 0.604, the “LN (average fold change)” value (gene Pole4) was 0.415 and the “percentage of expressing cells” value (gene Polr2e) was 0.091. The “LN (average fold change)” value (gene Polr2e) was −1.019, the “percentage of expressing cells” value (gene Prdx6) was 0.507 and the “LN (average fold change)” value (gene Prdx6) was 0.908. For the same molecule, the “percentage of expressing cells” value (gene Psap) was 0.299, the “LN (average fold change)” value (gene Psap) was −0.562 and the “percentage of expressing cells” value (gene Psmb8) was 0.49. The “LN (average fold change)” value (gene Psmb8) was −0.441, the “percentage of expressing cells” value (gene Psmb10) was 0.219 and the “LN (average fold change)” value (gene Psmb10) was −0.598. The “percentage of expressing cells” value (gene Ptp4a1) was 0.349, the “LN (average fold change)” value (gene Ptp4a1) was −0.514 and the “percentage of expressing cells” value (gene Ramp3) was 0.561. The “LN (average fold change)” value (gene Ramp3) was 0.516, the “percentage of expressing cells” value (gene Rheb) was 0.536 and the “LN (average fold change)” value (gene Rheb) was 0.631. For the same molecule, the “percentage of expressing cells” value (gene Rnf19b) was 0.279, the “LN (average fold change)” value (gene Rnf19b) was 0.971 and the “percentage of expressing cells” value (gene Rsrp1) was 0.24. For the same molecule, the “LN (average fold change)” value (gene Rsrp1) was −0.708, the “percentage of expressing cells” value (gene Saraf) was 0.304 and the “LN (average fold change)” value (gene Saraf) was −0.533. For the same molecule, the “percentage of expressing cells” value (gene Scp2) was 0.382, the “LN (average fold change)” value (gene Scp2) was −0.568 and the “percentage of expressing cells” value (gene Sepp1) was 0.254. For the same molecule, the “LN (average fold change)” value (gene Sepp1) was −0.824, the “percentage of expressing cells” value (gene Serp1) was 0.554 and the “LN (average fold change)” value (gene Serp1) was −0.529. The “percentage of expressing cells” value (gene Srsf7) was 0.251, the “LN (average fold change)” value (gene Srsf7) was −0.443 and the “percentage of expressing cells” value (gene Tgfb1) was 0.457. The “LN (average fold change)” value (gene Tgfb1) was 0.625, the “percentage of expressing cells” value (gene Tgoln1) was 0.215 and the “LN (average fold change)” value (gene Tgoln1) was −0.572. The “percentage of expressing cells” value (gene Tiparp) was 0.18, the “LN (average fold change)” value (gene Tiparp) was −0.904 and the “percentage of expressing cells” value (gene Tmem64) was 0.41. The “LN (average fold change)” value (gene Tmem64) was 0.605, the “percentage of expressing cells” value (gene Tmsb4x) was 1 and the “LN (average fold change)” value (gene Tmsb4x) was 0.195. The “percentage of expressing cells” value (gene Tmsb10) was 0.942, the “LN (average fold change)” value (gene Tmsb10) was −0.240 and the “percentage of expressing cells” value (gene Tnfaip3) was 0.534. For the same molecule, the “LN (average fold change)” value (gene Tnfaip3) was −0.487, the “percentage of expressing cells” value (gene Tnfaip8) was 0.518 and the “LN (average fold change)” value (gene Tnfaip8) was 0.740. For the same molecule, the “percentage of expressing cells” value (gene Tpm4) was 0.394, the “LN (average fold change)” value (gene Tpm4) was 0.964 and the “percentage of expressing cells” value (gene Tspan13) was 0.699. For the same molecule, the “LN (average fold change)” value (gene Tspan13) was −0.366, the “percentage of expressing cells” value (gene Tspan32) was 0.073 and the “LN (average fold change)” value (gene Tspan32) was −0.997. For the same molecule, the “percentage of expressing cells” value (gene Ubc) was 0.303, the “LN (average fold change)” value (gene Ubc) was −0.542 and the “percentage of expressing cells” value (gene Ucp2) was 0.612. The “LN (average fold change)” value (gene Ucp2) was 0.519, the “percentage of expressing cells” value (gene Uhrf2) was 0.296 and the “LN (average fold change)” value (gene Uhrf2) was −0.506. For the same molecule, the “percentage of expressing cells” value (gene Uqcrh) was 0.765, the “LN (average fold change)” value (gene Uqcrh) was 0.450 and the “percentage of expressing cells” value (gene Usmg5) was 0.509. The “LN (average fold change)” value (gene Usmg5) was −0.414, the “percentage of expressing cells” value (gene Vmp1) was 0.239 and the “LN (average fold change)” value (gene Vmp1) was 1.019. The “percentage of expressing cells” value (gene Zc3h12a) was 0.157, the “LN (average fold change)” value (gene Zc3h12a) was −0.866 and the “percentage of expressing cells” value (gene Zfp36l2) was 0.49. For the same molecule, the “LN (average fold change)” value (gene Zfp36l2) was 0.453, the “percentage of expressing cells” value (gene Zrsr1) was 0.242 and the “LN (average fold change)” value (gene Zrsr1) was −0.652.
